Experimental data as given in IntAct's records for PubMed 24275654.

Columns and labels:
[1] = target: tbb5_human TUBB (UniProt P07437)
[2] = target: tbb6_human TUBB6 (UniProt Q9BUF5)
[3] = target: tbb4a_human TUBB4A (UniProt P04350)
UniProt P04350, sequence (P04350 whole entry): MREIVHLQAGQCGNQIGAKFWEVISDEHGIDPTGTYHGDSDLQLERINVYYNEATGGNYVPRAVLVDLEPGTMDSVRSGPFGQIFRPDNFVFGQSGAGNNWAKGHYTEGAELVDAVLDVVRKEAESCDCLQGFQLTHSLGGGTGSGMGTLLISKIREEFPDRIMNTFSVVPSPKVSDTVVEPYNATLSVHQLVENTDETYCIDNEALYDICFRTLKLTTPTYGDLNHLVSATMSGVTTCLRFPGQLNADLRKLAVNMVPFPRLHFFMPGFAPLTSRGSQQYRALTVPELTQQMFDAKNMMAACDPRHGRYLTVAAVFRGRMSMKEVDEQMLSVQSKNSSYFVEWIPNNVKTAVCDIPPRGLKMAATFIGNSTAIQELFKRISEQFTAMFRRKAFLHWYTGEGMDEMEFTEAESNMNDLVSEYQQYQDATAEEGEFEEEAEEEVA

UniProt P07437, sequence (P07437 whole entry): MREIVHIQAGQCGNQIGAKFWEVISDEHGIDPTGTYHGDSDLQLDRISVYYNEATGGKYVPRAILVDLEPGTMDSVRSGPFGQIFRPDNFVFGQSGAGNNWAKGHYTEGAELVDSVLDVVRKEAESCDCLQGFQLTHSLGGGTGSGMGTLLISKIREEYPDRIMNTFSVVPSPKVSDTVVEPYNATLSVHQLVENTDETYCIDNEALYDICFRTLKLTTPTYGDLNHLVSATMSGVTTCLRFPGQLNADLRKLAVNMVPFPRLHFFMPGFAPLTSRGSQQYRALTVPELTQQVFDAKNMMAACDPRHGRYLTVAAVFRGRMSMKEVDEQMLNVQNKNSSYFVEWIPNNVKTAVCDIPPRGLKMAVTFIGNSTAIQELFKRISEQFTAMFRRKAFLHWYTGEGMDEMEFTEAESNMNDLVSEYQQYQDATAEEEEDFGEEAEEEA
UniProt Q9BUF5, sequence (Q9BUF5 whole entry): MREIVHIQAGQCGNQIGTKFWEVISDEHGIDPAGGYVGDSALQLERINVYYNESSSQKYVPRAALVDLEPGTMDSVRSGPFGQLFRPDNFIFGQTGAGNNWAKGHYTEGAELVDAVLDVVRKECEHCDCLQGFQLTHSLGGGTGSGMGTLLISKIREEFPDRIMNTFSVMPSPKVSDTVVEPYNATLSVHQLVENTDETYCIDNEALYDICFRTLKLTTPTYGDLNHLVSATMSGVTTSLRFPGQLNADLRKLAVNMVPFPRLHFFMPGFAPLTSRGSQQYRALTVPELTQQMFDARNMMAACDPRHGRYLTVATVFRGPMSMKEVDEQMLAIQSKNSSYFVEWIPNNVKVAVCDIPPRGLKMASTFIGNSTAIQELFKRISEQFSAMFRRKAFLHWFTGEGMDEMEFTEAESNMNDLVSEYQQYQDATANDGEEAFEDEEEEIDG

Substance	effect of a mutation on the interaction [1]	effect of a mutation on the interaction [2]	effect of a mutation on the interaction [3]
Leucine-rich repeat serine/threonine-protein kinase 2 (Homo sapiens), Q5S007 K1347A	disrupting interaction	disrupting interaction	disrupting interaction
Leucine-rich repeat serine/threonine-protein kinase 2 (Homo sapiens), Q5S007 R1441C	increasing interaction		increasing interaction
Leucine-rich repeat serine/threonine-protein kinase 2 (Homo sapiens), Q5S007 R1441G	decreasing interaction		decreasing interaction
Leucine-rich repeat serine/threonine-protein kinase 2 (Homo sapiens), Q5S007 R1441H	decreasing interaction		decreasing interaction
Leucine-rich repeat serine/threonine-protein kinase 2 (Homo sapiens), Q5S007 T1343A			increasing interaction
Leucine-rich repeat serine/threonine-protein kinase 2 (Homo sapiens), Q5S007 T1343D	decreasing interaction		decreasing interaction
Leucine-rich repeat serine/threonine-protein kinase 2 (Homo sapiens), Q5S007 T1491A			increasing interaction
Leucine-rich repeat serine/threonine-protein kinase 2 (Homo sapiens), Q5S007 T1491D			decreasing interaction
